Here are results for 3 molecules from patent US20110039770A1 (PHARMAGAP, published 2011).

Experiment [1] deals with PKC-α (UniProt P17252 1-672, limits assumed). The experiment can be described thus: cell-based or functional assay.
Experiment [2] concerns the target T1, PKC-ε (UniProt Q02156 1-737).
T1 sequence (looked up): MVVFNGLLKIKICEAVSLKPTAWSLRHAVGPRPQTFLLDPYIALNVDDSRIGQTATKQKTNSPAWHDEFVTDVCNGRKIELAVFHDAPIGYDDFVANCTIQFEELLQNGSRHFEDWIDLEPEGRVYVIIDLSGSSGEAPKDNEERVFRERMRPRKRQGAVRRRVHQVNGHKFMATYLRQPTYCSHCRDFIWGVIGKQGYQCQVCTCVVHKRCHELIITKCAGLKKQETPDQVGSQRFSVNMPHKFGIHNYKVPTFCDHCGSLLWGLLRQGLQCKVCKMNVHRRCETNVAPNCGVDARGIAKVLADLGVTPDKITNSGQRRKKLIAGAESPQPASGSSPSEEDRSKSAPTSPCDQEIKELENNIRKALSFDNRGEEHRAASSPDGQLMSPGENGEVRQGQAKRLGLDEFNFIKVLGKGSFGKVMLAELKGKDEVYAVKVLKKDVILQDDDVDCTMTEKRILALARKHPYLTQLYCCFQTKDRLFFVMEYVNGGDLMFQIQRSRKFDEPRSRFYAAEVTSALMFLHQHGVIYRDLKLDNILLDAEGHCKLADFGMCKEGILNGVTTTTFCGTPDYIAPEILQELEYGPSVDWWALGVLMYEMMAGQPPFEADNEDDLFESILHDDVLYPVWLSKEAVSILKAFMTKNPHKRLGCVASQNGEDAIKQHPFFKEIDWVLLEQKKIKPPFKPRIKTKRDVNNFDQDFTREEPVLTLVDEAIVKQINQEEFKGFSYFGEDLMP
Kind of experiment: cell-based or functional assay.

The target in experiment [3] is PKC-βI (UniProt P05771-1 1-671, limits assumed). The experiment can be described thus: cell-based or functional assay.
PKC-βI, sequence (P05771 whole entry): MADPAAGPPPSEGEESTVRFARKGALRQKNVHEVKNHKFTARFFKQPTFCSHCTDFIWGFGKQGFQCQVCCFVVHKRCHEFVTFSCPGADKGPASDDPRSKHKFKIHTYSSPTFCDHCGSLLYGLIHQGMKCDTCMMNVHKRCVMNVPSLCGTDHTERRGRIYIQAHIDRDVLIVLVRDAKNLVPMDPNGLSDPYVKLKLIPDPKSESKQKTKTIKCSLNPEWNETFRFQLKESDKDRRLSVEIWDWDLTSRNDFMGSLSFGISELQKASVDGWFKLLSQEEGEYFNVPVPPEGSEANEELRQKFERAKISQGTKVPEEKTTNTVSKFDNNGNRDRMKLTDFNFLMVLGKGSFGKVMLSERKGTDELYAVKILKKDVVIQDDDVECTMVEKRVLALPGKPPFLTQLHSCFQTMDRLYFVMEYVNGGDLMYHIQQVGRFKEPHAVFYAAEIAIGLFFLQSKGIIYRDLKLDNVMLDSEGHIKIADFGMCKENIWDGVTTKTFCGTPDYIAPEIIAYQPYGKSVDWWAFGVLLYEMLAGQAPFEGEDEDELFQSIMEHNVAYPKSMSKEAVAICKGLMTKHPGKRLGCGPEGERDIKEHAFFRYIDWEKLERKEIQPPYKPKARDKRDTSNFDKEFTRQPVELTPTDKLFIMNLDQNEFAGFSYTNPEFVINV
Experiment [4] addresses T2, PKC-ε (endogenous, IMR-32 lysate) (human, UniProt Q02156 1-737).
T2 construct: Band 1 and Band 2 (alternate splicing variants, not identified further) are kept under one molecule; the band is named in the assay field of each row; also called PKC-epsilon; PKC-ε Band 1
T2 sequence (looked up): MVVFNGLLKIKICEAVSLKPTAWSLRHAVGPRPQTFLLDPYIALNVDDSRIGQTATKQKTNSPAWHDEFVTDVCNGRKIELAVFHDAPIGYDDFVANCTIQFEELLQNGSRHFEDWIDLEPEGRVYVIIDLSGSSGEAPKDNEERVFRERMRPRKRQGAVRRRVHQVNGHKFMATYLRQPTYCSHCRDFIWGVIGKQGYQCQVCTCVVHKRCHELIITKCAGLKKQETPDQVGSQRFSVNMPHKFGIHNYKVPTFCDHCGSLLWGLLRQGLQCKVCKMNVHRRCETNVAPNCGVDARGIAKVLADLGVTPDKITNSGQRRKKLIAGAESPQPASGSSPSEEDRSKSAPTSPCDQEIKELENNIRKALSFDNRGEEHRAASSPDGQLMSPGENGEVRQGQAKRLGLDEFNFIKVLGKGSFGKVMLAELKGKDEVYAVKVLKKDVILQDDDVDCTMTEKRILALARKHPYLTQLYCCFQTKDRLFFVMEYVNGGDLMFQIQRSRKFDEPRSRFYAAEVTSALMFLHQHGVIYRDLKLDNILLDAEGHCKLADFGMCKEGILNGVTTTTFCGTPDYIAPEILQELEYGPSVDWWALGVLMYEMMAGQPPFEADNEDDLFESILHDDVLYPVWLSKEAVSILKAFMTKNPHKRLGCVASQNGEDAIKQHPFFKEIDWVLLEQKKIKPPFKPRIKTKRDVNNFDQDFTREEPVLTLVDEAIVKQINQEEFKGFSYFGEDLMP
Kind of experiment: WB competition Protocol B, IMR-32 extract, vs anti-PKC-ε Ab; PKC-ε Band 1; 50 µg peptide. Here is the method:
(§1) The ability of the peptides PRE 2 and PRE 3 (see Table 4) to interfere with the binding of a PKC-α-specific polyclonal antibody (Santa Cruz Biotechnology, Inc.) to PKC-α was determined using a modified version of the protocol outlined above in which the test peptide was added directly to the cell extract prior to electrophoresis at a concentration of either 5× or 15× the concentration of the protein applied to each well of the gel for the Western blots (20 μg).
(§2) Peptides PRE 2, PRE 3 and PRE 4 (see Table 4) were tested for their ability to interfere with the binding of isoform-specific polyclonal antibodies (Santa Cruz Biotechnology, Inc.) to […] using the general protocol described in Example 3. Two bands, representing alternate splicing variants of PKC-ε, were identified on the Western blot using this anti-PKC-ε antibody.

In experiment [5] the target is T2, PKC-ε (endogenous, IMR-32 lysate). The experiment can be described thus: WB competition Protocol B, IMR-32 extract, vs anti-PKC-ε Ab; PKC-ε Band 2; 100 µg peptide. How it is done:
as §1, §2

Experiment [6] addresses T3, PKC-βI (purified isoform) (Homo sapiens (Human), UniProt P05771 2-671).
T3 construct: also called PKC-beta I; PKC beta 1
The experiment can be described thus: competitive ELISA, coated purified PKC-βI, vs anti-PKC βI (SC-209); PRE 50 µM. How it is done: (§3) Greiner 96 well ELISA plates were coated with the appropriate PKC isoform diluted in PBSN (PBS with Calcium/Magnesium+0.05% Sodium azide w/w). 50 μL/well at 250 ng/mL was used. Control wells contained PBSN only. Plates were incubated overnight at 4° C.
(§4) The plates were washed 3 times with 200 μL of dH₂O per well, then 100 μL of blocking solution was added per well and the plate incubated for 1 h at 37° C. The washing steps with dH₂O were repeated and 50 μL of the appropriate PRE solution (PRE stock solution [20 mM in DMSO] diluted in PBSN) was added and the plate incubated for 1 h at room temperature.
(§5) 50 μL of 1:1000 dilution of Alkaline Phosphatase (AP) conjugated antibody (anti-rabbit for all except zeta, which was anti-goat) was then added and the plate incubated for 1 h at room temperature. Washing with dH₂O was then repeated. Finally, 100 μL of pNPP solution in pNPP buffer (2 mM MgCl₂, 100 mM Sodium bicarbonate in water, pH 9.8) was added to all wells and incubated for 8 minutes for α, βI, βII ε, and ζ, or for 15-20 mins for δ (until sufficient coloration is observed). The reaction was stopped by addition of Stop solution (2N NaOH) and the absorbance at 405 nm was read on a Galaxy Plate reader.

Experiment [7] has as its target T4, PKC-δ (purified isoform).
T4 construct: also called PKC-delta
The experiment can be described thus: competitive ELISA, coated purified PKC-δ, vs anti-PKC δ (SC-213); PRE 100 µM. How it is done: as §3, §4, §5

The target of experiment [8] is T4, PKC-δ (purified isoform). Kind of experiment: competitive ELISA, coated purified PKC-δ, vs anti-PKC δ (SC-213); PRE 50 µM. How it is done:
as §3, §4, §5
Background: In an ELISA, binding on a coated surface is turned into a signal by an enzyme label.

The target of experiment [9] is T4, PKC-δ (purified isoform). The experiment can be described thus: competitive ELISA, coated purified PKC-δ, vs anti-PKC δ (SC-213); PRE 200 µM. How it is done: as §3, §4, §5
T4 sequence (Q05655 whole entry, stated change not applied, canonical isoform): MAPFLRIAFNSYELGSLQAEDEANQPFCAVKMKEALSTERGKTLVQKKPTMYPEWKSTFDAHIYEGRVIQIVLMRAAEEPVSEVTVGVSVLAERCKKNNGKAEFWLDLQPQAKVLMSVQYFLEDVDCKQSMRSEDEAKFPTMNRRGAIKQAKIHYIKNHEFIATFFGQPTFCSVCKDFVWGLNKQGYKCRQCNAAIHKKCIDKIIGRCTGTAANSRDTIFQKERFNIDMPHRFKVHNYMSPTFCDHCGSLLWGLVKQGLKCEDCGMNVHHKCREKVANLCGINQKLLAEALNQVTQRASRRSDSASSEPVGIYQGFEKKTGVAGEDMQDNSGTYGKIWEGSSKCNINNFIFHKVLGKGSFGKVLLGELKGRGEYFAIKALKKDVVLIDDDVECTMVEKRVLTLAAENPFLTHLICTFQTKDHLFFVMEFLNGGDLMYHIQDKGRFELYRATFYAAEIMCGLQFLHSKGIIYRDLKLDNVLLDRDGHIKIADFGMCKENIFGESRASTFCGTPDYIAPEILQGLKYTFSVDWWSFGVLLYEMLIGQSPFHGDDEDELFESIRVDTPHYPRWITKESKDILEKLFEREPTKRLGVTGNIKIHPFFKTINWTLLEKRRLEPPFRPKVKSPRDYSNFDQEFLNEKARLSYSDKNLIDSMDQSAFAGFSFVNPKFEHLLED
The target in experiment [10] is T5, PKC-α (purified isoform) (Homo sapiens (Human), UniProt P17252 2-672).
T5 construct: also called purified PKC-alpha; commercially purified PKC-alpha
Kind of experiment: competitive ELISA, coated purified PKC-α, vs anti-PKC α (SC-208); PRE 200 µM. How it is done: as §3, §4, §5

Experiment [11] addresses T3, PKC-βI (purified isoform). Kind of experiment: competitive ELISA, coated purified PKC-βI, vs anti-PKC βI (SC-209); PRE 200 µM. How it is done: as §3, §4, §5
The target in experiment [12] is T2, PKC-ε (endogenous, IMR-32 lysate). The experiment can be described thus: WB competition Protocol B, IMR-32 extract, vs anti-PKC-ε Ab; PKC-ε Band 1; 100 µg peptide. How it is done: as §1, §2
Experiment [13] has the same target. Kind of experiment: WB competition Protocol B, IMR-32 extract, vs anti-PKC-ε Ab; PKC-ε Band 2; 50 µg peptide. Here is the method: as §1, §2
The target in experiment [14] is T3, PKC-βI (purified isoform). Kind of experiment: competitive ELISA, coated purified PKC-βI, vs anti-PKC βI (SC-209); PRE 100 µM. How it is done:
as §3, §4, §5

Experiment [15] has as its target T5, PKC-α (purified isoform). The experiment can be described thus: competitive ELISA, coated purified PKC-α, vs anti-PKC α (SC-208); PRE 100 µM. Here is the method:
as §3, §4, §5

Experiment [16] has as its target T2, PKC-ε (endogenous, IMR-32 lysate). The experiment can be described thus: WB competition Protocol B, IMR-32 extract, vs anti-PKC-ε Ab; PKC-ε Band 1; 20 µg peptide. How it is done:
as §1, §2

Experiment [17] deals with T5, PKC-α (purified isoform). Kind of experiment: competitive ELISA, coated purified PKC-α, vs anti-PKC α (SC-208); PRE 50 µM. How it is done:
as §3, §4, §5

Experiment [18] deals with T2, PKC-ε (endogenous, IMR-32 lysate). The experiment can be described thus: WB competition Protocol B, IMR-32 extract, vs anti-PKC-ε Ab; PKC-ε Band 2; 20 µg peptide. Here is the method:
as §1, §2

T3 sequence (P05771 2-671 limits assumed): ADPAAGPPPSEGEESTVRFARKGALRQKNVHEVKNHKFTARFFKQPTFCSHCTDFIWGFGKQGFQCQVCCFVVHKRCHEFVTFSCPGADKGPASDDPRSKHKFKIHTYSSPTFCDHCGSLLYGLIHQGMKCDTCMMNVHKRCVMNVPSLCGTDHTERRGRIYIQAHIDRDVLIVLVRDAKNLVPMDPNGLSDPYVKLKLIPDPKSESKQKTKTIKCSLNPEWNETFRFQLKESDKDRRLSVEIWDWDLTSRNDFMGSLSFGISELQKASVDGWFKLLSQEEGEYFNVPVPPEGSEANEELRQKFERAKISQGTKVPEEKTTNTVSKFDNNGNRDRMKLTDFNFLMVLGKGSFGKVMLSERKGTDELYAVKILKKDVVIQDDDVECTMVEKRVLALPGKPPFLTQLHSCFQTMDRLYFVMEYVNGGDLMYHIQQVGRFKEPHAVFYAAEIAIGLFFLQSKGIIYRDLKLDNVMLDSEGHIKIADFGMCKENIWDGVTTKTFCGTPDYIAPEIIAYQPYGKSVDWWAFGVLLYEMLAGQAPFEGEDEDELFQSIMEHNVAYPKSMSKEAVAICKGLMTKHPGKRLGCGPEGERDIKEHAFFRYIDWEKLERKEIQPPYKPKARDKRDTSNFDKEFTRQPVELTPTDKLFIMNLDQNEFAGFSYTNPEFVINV

In the case of Ac-FRRCFRLGGGGGGGRRKKGGKDFVVKR-NH2 [Compound TIM 20 (PRE 1 and PKI 4)], the “% Inhibition of kinase activity (Kinase-Glo), compound at 5.0 µM” value was 19.8% in experiment [1], -9% in experiment [2] and 6.7% in experiment [3]. For the same molecule, the “% Inhibition of kinase activity (Kinase-Glo), compound at 30.0 µM” value in experiment [1] is 0%; in experiment [2] it was -29%; in experiment [3] it was 15.1%.

Regarding Ac-AKGIQEVKGGDAQNLIGISI-NH2 (also called peptide PRE 3) [PRE 3], the “Band Intensity” value in experiment [4] was found to be 0; in experiment [5], 0; in experiment [12], 0; in [13], 0; in [16] it was 5.12; in experiment [18], 0. Also, the “Inhibition (%)” value in [4] was 100%; in experiment [5] it was 100%; in experiment [12], 100%; in experiment [13], 100%; in experiment [16], 99%; in experiment [18] it was 100%. The “Relative Intensity (%)” value in [4] amounted to 0%; in [5], 0%; in experiment [12] it was 0%; in experiment [13], 0%; in [16] it was 0.12%; in experiment [18], 0%. Moreover, the “relative binding capacity (100-%n, DMSO subtracted)” value came out at 26% in experiment [6]; 56% in experiment [7]; 48.3% in experiment [8]; 57% in experiment [9]; 22.6% in experiment [10]; 23% in experiment [11]. Moreover, the “relative binding capacity (100-%n, DMSO subtracted)” value in experiment [14] was 22.5%; in [15], 26.5%; in experiment [17] it was 17.5%.

With Ac-FRRCFRLGGGGGGGAKGIQEVKGGDAQNLIGISI-NH2 [Compound TIM 18 (PRE 3 and PKI 4)], the figures for the “% Inhibition of kinase activity (Kinase-Glo), compound at 5.0 µM” value in [1], in experiment [2] and in experiment [3] were 100%, -28% and 76.3%, respectively. The figures for the “% Inhibition of kinase activity (Kinase-Glo), compound at 30.0 µM” value in experiment [1], in experiment [2] and in experiment [3] were 100%, 1% and 76.1%, respectively.
